Measurements reported in article PMC9537309.

Assays:
Test in all cases: FLAG immunoprecipitation and LC/ESI-MS/MS
Settings in all cases: HEK293T cells, three biological replicates; read off a plot
FUBP3 = target: FUBP3
ILF3 = target: ILF3
SART3 = target: SART3
HNRNPA2B1 = target: HNRNPA2B1
MYH9 = target: MYH9

other: log2 fold change (FUBP3): -2.5 | other: log2 fold change (ILF3): -1.6 | other: log2 fold change (SART3): -2.5 | other: log2 fold change (HNRNPA2B1): -1.3 | other: log2 fold change (MYH9): 0.43
Substance: FLAG-tagged DND1 wild-type (Dead End, full-length human protein 1-353) (from UniProt Q8IYX4) R98A
